Assay results as given in patent publication US20090181003A1, “Regulation of S6 Kinsase Protein Activity and Related Methods” (priority 2005, published 2009).

How the values were obtained:
recombinant S6K2 = test: In vitro acetylation with 14C labelled acetyl coenzyme A, S6K2; format: biochemical; conditions: 1 μg recombinant S6K2, HAT buffer with 14C AcCoA
Method: (§1) In FIG. 2A, recombinant S6 kinases were acetylated in vitro using the purified acetyltransferase domain of p300 or full length PCAF and ^14C-labelled acetyl CoA. Proteins were resolved by SDS-PAGE and acetylated proteins were analysed by phosphorimaging (Bio-rad). In FIG. 2B, recombinant S6K2 or GST were subject to in vitro acetylation reactions with p300 and 14C AcCoA. Recombinant PKB/Akt, PKCa, PDK1 and PI3K (p85a/p110a) were purified using baculovirus expression system. In vitro acetylation assay was carried out as previously described. In FIG. 2D, HEK 293 cells were transfected with S6 kinases in the absence or presence of Gal4-p300 as shown. Cells were treated with medium containing either solvent control or TSA to a final concentration of 660 nM for twelve hours prior to harvesting. Recombinant S6 kinases were immunoprecipitated using the EE-antibody and acetylated S6 kinase was detected by western blotting with polyclonal acetylated lysine antibodies (Upstate). The level of immunoprecipitated S6K1 and S6K2 was analysed by reprobing the membranes with specific antibodies. The expression of Gal4-p300 was tested in total lysates using anti-Gal4 antibodies.
(§2) Since S6Ks can interact with a region within, or adjacent to the acetyltransferase domain of p300 we hypothesized that they may in fact be targeted by its enzymatic activity. […] We detected weak, but reproducible acetylation of PKCa.

S6K2 = target: T1, S6K2 (Homo sapiens, UniProt Q9UBS0); test: In vitro GST pulldown of p300 GST-fusion fragments with recombinant S6K2; format: binding; conditions: GST fusion proteins on glutathione beads, highly purified recombinant S6K2
T1 construct: made in house; GST-p300 fragments: bacteria
T1 sequence (Q9UBS0 with tags, fused parts or gaps A420V): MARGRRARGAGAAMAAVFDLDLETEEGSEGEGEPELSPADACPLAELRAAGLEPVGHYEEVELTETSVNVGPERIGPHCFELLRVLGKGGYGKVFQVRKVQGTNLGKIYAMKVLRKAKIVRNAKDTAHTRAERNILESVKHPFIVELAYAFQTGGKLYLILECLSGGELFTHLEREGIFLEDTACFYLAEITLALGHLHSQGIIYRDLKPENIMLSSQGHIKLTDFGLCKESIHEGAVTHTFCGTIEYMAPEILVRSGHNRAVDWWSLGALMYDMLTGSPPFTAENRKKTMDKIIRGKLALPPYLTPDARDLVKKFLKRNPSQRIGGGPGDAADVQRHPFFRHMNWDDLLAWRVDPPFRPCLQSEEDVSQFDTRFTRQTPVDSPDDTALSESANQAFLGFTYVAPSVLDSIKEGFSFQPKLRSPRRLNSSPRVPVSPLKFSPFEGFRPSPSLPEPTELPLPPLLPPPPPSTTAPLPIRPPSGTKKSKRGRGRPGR
Excerpt: In FIG. 1A, S6K1 and S6K2 were immunoprecipitated from MCF-7 cells using polyclonal antibodies or pre-immune serum control. Co-immunoprecipitated p300 was detected by western blotting with specific antibody. In FIG. 1B, 293 cells were cotransfected with either EE-S6K1 and Gal4-p300 or empty vector and Gal4-p300. S6K1 was immunoprecipitated using anti-EE antibody and associated p300 was detected by western blotting with anti-Gal4 antibody. Input: approximately ten percent of soluble lysate. In FIG. 1C, NIH-3T3 cells were transfected with empty vector or EE-S6K2. Anti-EE immunoprecipitates were subjected to western blotting with anti-p300 antibody. Input: approximately one percent of soluble lysate. […] Endogenous S6K1 and S6K2 were immunoprecipitated from MCF-7 cells using polyclonal antibodies. Associated P/CAF was detected by western blotting with polyclonal antibodies (Upstate). In FIG. 1E, the full length p300 was used to produce several GST-fusion fragments as shown (Hasan et al. (2001) Mol. Cell. 7, 1221-1231). Expressed fusion proteins were coupled to glutathione beads and used in an in vitro GST pulldown assay with recombinant S6K2. After extensive washing, bound S6K2 was detected by western blotting. […]

recombinant S6K1 = test: In vitro acetylation with 14C labelled acetyl coenzyme A, S6K1; format: biochemical; conditions: 1 μg recombinant S6K1, HAT buffer with 14C AcCoA
Method: as §1, §2

acetylation of S6K2 (14C acetyl incorporation) (recombinant S6K2): acetyl groups were indeed incorporated
binding of S6K2 to p300 domains (S6K2): selective binding
acetylation of S6K1 (14C acetyl incorporation) (recombinant S6K1): acetyl groups were indeed incorporated
B1: p300 domain 4: active domain of p300 acetyltransferase, amino acid 1,459 to 1,892 (SEQ ID NO: 6), contains part of the acetyltransferase domain (protein, listed as Homo sapiens)
chain: KPKRLQEWYKKMLDKAVSERIVHDYKDIFKQATEDRLTSAKELPYFEGDFWPNVLEESIKELEQEEEERKREENTSNESTDVTKGDSKNAKKKNNKKTSKNKSSLSRGNKKKPGMPNVSNDLSQKLYATMEKHKEVFFVIRLIAGPAANSLPPIVDPDPLIPCDLMDGRDAFLTLARDKHLEFSSLRRAQWSTMCMLVELHTQSQDRFVYTCNECKHHVETRWHCTVCEDYDLCITCYNTKNHDHKMEKLGLGLDDESNNQQAAATQSPGDSRRLSIQRCIQSLVHACQCRNANCSLPSCQKMKRVVQHTKGCKRKTNGGCPICKQLIALCCYHAKHCQENKCPVPFCLNIKQKLRQQQLQHRLQQAQMLRRRMASMQRTGVVGQQQGLPSPTPATPTTPTGQQPTTPQTPQPTSQPQPTPPNSMPPYLPRTQA
modifications: GST fusion partner
